Target: the molecule itself
Assay: SEC

B1: cofactor A purified from bovine testis (natural protein, UniProt P48427 1-108, looked up)
chain: MADPRVRQIKIKTGVVKRLVKEKMMYEKEAKQQEEKIEKMKAEDGENYAIKKQAEILQESRMMIPDCQRRLEAAHTDLLQLLESEKDLEEAEEYKEARLVLDSVKLEA
  stoichiometry N: 2

Source: article PMC2120044 (The Journal of Cell Biology, 1994)
